Experiments:
Saccharomyces cerevisiae [1] = experiment: protein stability index of tFT-peptide fusion in wild type (PSI (0-1 scale)); higher = more stable (slower turnover); conditions: genetic background: wild type
Saccharomyces cerevisiae [2] = experiment: protein stability index of tFT-peptide fusion in deletion strain of DOA10 (PSI (0-1 scale)); higher = more stable (slower turnover)
Description: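 MPS profiling in S. cerevisiae of two library types built from selected 12-aa C-degron peptides (IN1, IN2, LN1, LN3, VN2, R1-R5, W1-W3, Atg1 and Rpa12 C-termini): saturation mutagenesis libraries and C-terminal +1 capping libraries (13 aa). Each peptide is fused to the C-terminus of a sfGFP-mCherry timer, after a GGGS linker. Cells are FACS-sorted into 8 mCherry/sfGFP bins and sequenced. PSI runs from 0 (unstable) to 1 (stable), measured once in wild type and in the das1Δ or doa10Δ background.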
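Throughout, for protein stability index of tFT-peptide fusion in deletion strain of DOA10: PSI per variant is the weighted mean of its sequencing read distribution over the sorted stability bins, counting only variants with over 10 reads summed across bins.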
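Throughout, for protein stability index of tFT-peptide fusion in wild type: PSI derived as read-weighted mean over the 8 sorting bins, only variants exceeding 10 total reads kept, mCherry placed adjacent to the peptide and sfGFP distal.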

Sequence | protein stability index (Saccharomyces cerevisiae [1]) | protein stability index (Saccharomyces cerevisiae [2])
CLVLLPILLFFR | 0.0939 | 0.442
CLVSLFILLFFR | 0.228 | 0.433
CLVSLKILLFFR | 0.189 | 0.282
CLVSLPICLFFR | 0.0838 | 0.593
CLVSLPIILFFR | 0.0727 | 0.575
CLVSLPILAFFR | 0.151 | 0.613
CLVSLPILLFDR | 0.554 | 0.65
CLVSLPILLFFP | 0.495 | 0.588
CLVSLPILLFFY | 0.232 | 0.435
CLVSLPILLLFR | 0.0579 | 0.579
CLVSLPILLYFR | 0.0564 | 0.597
CLVSLPILQFFR | 0.623 | 0.66
CLVSLPTLLFFR | 0.0585 | 0.663
CLVSLPVLLFFR | 0.0558 | 0.614
CLVSLQILLFFR | 0.164 | 0.264
CLVSLVILLFFR | 0.258 | 0.34
CLVSMPILLFFR | 0.0734 | 0.601
CLVSYPILLFFR | 0.0543 | 0.603
CVTRLDAIYFRI | 0.194 | 0.71
DITLPMCPLLLR | 0.39 | 0.655
FLYMCSVGCWFR | 0.351 | 0.563
GLCMCSVGCWFR | 0.256 | 0.608

Sequence | protein stability index (Saccharomyces cerevisiae [1]) | protein stability index (Saccharomyces cerevisiae [2])
GLNMCSVGCWFR | 0.264 | 0.673
GLYMCFVGCWFR | 0.233 | 0.402
GLYMCSEGCWFR | 0.619 | 0.706
GLYMCSRGCWFR | 0.436 | 0.677
GLYMCSTGCWFR | 0.37 | 0.684
GLYMCSVGCHFR | 0.621 | 0.663
GLYMCSVGCMFR | 0.524 | 0.636
GLYMCSVGCWFL | 0.506 | 0.598
GLYMCSVGCWFRK | 0.435 | 0.648
GLYMCSVGCWFRT | 0.227 | 0.554
GLYMCSVGCWIR | 0.179 | 0.402
GLYMCSVGCWLR | 0.212 | 0.537
GLYMCSVGCWWR | 0.355 | 0.634
GLYMCSVGKWFR | 0.637 | 0.674
GLYMCSVRCWFR | 0.382 | 0.442
GLYMCSVTCWFR | 0.265 | 0.327
GLYMDSVGCWFR | 0.521 | 0.727
GLYMMSVGCWFR | 0.26 | 0.604
GLYMVSVGCWFR | 0.176 | 0.38
GLYMWSVGCWFR | 0.278 | 0.601
GRYMCSVGCWFR | 0.385 | 0.669
ISLRVLLPLYFR | 0.286 | 0.588

Sequence | protein stability index (Saccharomyces cerevisiae [1]) | protein stability index (Saccharomyces cerevisiae [2])
KSLRVLLPLYFR | 0.288 | 0.654
QITLPMCPLLLR | 0.288 | 0.645
QVTRLDAIYFRI | 0.346 | 0.693
RLVSLPILLFFR | 0.0755 | 0.614
RPLRVLLPLYFR | 0.355 | 0.666
RRTRLDAIYFRI | 0.422 | 0.599
RSLRILLPLYFR | 0.253 | 0.655
RSLRVDLPLYFR | 0.203 | 0.69
RSLRVLEPLYFR | 0.412 | 0.69
RSLRVLLPLDFR | 0.666 | 0.723
RSLRVLLPLIFR | 0.375 | 0.671
RSLRVLLPLYFRE | 0.356 | 0.703
RSLRVLLPLYFRP | 0.291 | 0.638
RSLRVLLPLYHR | 0.626 | 0.682
RSLRVLLPLYLR | 0.29 | 0.671
RSLRVLLPLYSR | 0.609 | 0.642
RSLRVLLPTYFR | 0.569 | 0.664
RSLVVLLPLYFR | 0.257 | 0.634
RVERLDAIYFRI | 0.491 | 0.682
RVLRLDAIYFRI | 0.376 | 0.666
RVSRLDAIYFRI | 0.445 | 0.671
RVTFLDAIYFRI | 0.438 | 0.621

Sequence | protein stability index (Saccharomyces cerevisiae [1]) | protein stability index (Saccharomyces cerevisiae [2])
RVTGLDAIYFRI | 0.534 | 0.683
RVTRLDAIFFRI | 0.364 | 0.712
RVTRLDAIPFRI | 0.69 | 0.724
RVTRLDAIQFRI | 0.658 | 0.698
RVTRLDAIYARI | 0.684 | 0.724
RVTRLDAIYFLI | 0.0749 | 0.119
RVTRLDAIYFRF | 0.415 | 0.718
RVTRLDAIYFRIK | 0.615 | 0.694
RVTRLDAIYFRIS | 0.206 | 0.271
RVTRLDAIYFRIT | 0.16 | 0.243
RVTRLDAIYFSI | 0.629 | 0.713
RVTRLDAIYNRI | 0.697 | 0.738
RVTRLDMIYFRI | 0.236 | 0.658
RVTRLDQIYFRI | 0.403 | 0.696
RVTRLDRIYFRI | 0.243 | 0.566
RVTRMDAIYFRI | 0.365 | 0.683
TLVSLPILLFFR | 0.0732 | 0.613
VLYMCSVGCWFR | 0.311 | 0.521
WITLPMCPLLLR | 0.31 | 0.606

Source: the supplement of paper PMC10724198
